# Measured values as given in US20250270167A1.
# Target: GHR
Substance,"EC50 (chemiluminescence value, ONE-Glo, HEK293-GHR cells) [µg/mL]",Relative activity (%)
"Polyethylene Glycol Recombinant Human Somatropin Injection (commercially available PEG-rhGH drug, Changchun GeneScience Pharmaceutical Co., Ltd.) (from UniProt P01241) (ligand)",0.0686,18
"Jintropin (commercially available rhGH drug, Changchun GeneScience Pharmaceutical Co., Ltd.) (from UniProt P01241) (ligand)",0.0126,
rhGH standard product of National Institutes for Food and Drug Control (from UniProt P01241) (ligand),0.012,
